The results in this text go back to the supplement of paper PMC9732359.

The series in a line: protein stability index of a GFP-peptide fusion (yeast GPS) (PSI 1-4); higher = more stable; sorted into four equal gates, so the index is relative within each strain. The procedure, abridged: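 Plasmids isolated from each sorting gate were PCR-amplified and Illumina-sequenced, and barcodes assigned the reads to strains. The gates, four of equal size, were set by GFP/Cherry fluorescence ratio on mid-log cultures in leucine-free medium. These cultures were yeast carrying a pooled library of tiled 17-residue yeast protein peptides fused downstream of GFP on a plasmid that also expresses Cherry. The protein stability index is the sum of every gate's read frequency times its gate number.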

± gives the uncertainty stated by the source.

For QQQQQQQQQQQQQGQIP [SNF5], the protein stability index (doa10∆) is 2.729 ± 0.023, the protein stability index (pdr5∆) came out at 2.79 ± 0.023, the protein stability index (san1∆) is 2.75 ± 0.022 and the protein stability index (ubr1∆) was 2.826 ± 0.02.

For LRTVKEVQFGLFSPEEV [RPO21], the protein stability index by setting is: (doa10∆) 2.76 ± 0.082; (pdr5∆) 2.98 ± 0.081; (san1∆) 3.02 ± 0.046; (ubr1∆) 2.95 ± 0.043.

On to ITHAHSLSNPNSTATMQ [PGD1], for which the protein stability index (doa10∆) amounted to 2.8 ± 0.055, the protein stability index (pdr5∆) was determined as 2.44 ± 0.054, the protein stability index (san1∆) worked out at 2.5 ± 0.063 and the protein stability index (ubr1∆) amounted to 2.86 ± 0.043.

Take AIMNCADNSGARNLYII [RPL23A]: the protein stability index by setting is: (doa10∆) 2.33 ± 0.089; (pdr5∆) 3.14 ± 0.17; (san1∆) 2.52 ± 0.14; (ubr1∆) 3.1 ± 0.17.

On to IWLLSYIQYLGHLPEVS [ECM29], for which the protein stability index (doa10∆) is 1.62 ± 0.071, the protein stability index (pdr5∆) is 1.9 ± 0.06, the protein stability index (san1∆) came to 2.21 ± 0.063 and the protein stability index (ubr1∆) was determined as 1.92 ± 0.057.

For the sequence EDEEEFSIFNYFKMFPA [RPC34], the protein stability index was 3.27 ± 0.19 (doa10∆), 2.2 ± 0.1 (pdr5∆) and 2.46 ± 0.2 (ubr1∆).

As for NSIESKNLSLQTGTKPV [COR1], the protein stability index was 2.72 ± 0.06 (doa10∆), 2.84 ± 0.053 (pdr5∆), 2.95 ± 0.045 (san1∆) and 2.85 ± 0.042 (ubr1∆).

As for LLHETNDSFKGLITNKM [PRP8], the protein stability index stood at 3 ± 0.16 (doa10∆), 2.8 ± 0.071 (pdr5∆), 3.06 ± 0.12 (san1∆) and 3.24 ± 0.12 (ubr1∆).

As to LHPYVPSSKPQEQVYPD [SRB8], the protein stability index turned out to be 2.81 ± 0.24 (doa10∆), 2.92 ± 0.12 (pdr5∆), 3.08 ± 0.093 (san1∆) and 3.25 ± 0.15 (ubr1∆).

DLKDILEKVVPLINVVV [BRR2]: the protein stability index (doa10∆) came to 2.22 ± 0.12, the protein stability index (pdr5∆) came out at 1.91 ± 0.077, the protein stability index (san1∆) was 2.37 ± 0.15 and the protein stability index (ubr1∆) was 2.51 ± 0.065.

Regarding LESSITDAGVLALKLEL [YJL039C/NUP192], the protein stability index was 1.57 ± 0.06 (doa10∆), 1.48 ± 0.061 (pdr5∆), 1.3 ± 0.13 (san1∆) and 1.57 ± 0.085 (ubr1∆).

For FISSGTSLLDSLISVLE [YJL039C/NUP192], the protein stability index runs as follows: (doa10∆) 2 ± 0.056; (pdr5∆) 2.27 ± 0.052; (san1∆) 2.17 ± 0.08; (ubr1∆) 1.91 ± 0.047.

Consider PSILEDSLENNEGVPSP [FAS1], for which the protein stability index worked out at 3.29 ± 0.23 (doa10∆), 2.79 ± 0.22 (pdr5∆), 3.22 ± 0.17 (san1∆) and 3.14 ± 0.2 (ubr1∆).

As for VTEETTKQIQSVRIDGR [SIR4], the protein stability index came out at 2.31 ± 0.086 (doa10∆), 3.06 ± 0.077 (pdr5∆), 2.83 ± 0.066 (san1∆) and 2.12 ± 0.074 (ubr1∆).

For TIEDIAVAITRASKLKI [RPO31], the protein stability index (doa10∆) is 1.63 ± 0.081, the protein stability index (pdr5∆) is 1.76 ± 0.063, the protein stability index (san1∆) worked out at 2.1 ± 0.12 and the protein stability index (ubr1∆) was 1.97 ± 0.06.

FEDQVTNILTKVDINAD [PRP28] gave a protein stability index (doa10∆) of 3.19 ± 0.2 and a protein stability index (san1∆) of 3.2 ± 0.18.

As for VLVLHGDKDTRADIVRN [ISW2], the protein stability index runs as follows: (doa10∆) 3.02 ± 0.063; (pdr5∆) 3.17 ± 0.063; (san1∆) 2.9 ± 0.078; (ubr1∆) 3.06 ± 0.054.

In turn, LKALSHHYNPKTKKLNL [BRR2] yielded a protein stability index (doa10∆) of 2.46 ± 0.088, a protein stability index (pdr5∆) of 2.4 ± 0.086, a protein stability index (san1∆) of 2.33 ± 0.11 and a protein stability index (ubr1∆) of 2.69 ± 0.053.

Turning to ARTIKATLPYIKQDIPI [RPB2], the protein stability index runs as follows: (doa10∆) 2.73 ± 0.1; (pdr5∆) 2.3 ± 0.061; (san1∆) 2.26 ± 0.075; (ubr1∆) 2.74 ± 0.072.

On to AKNFSAQKRVVSYMMPS [SRB8], for which the protein stability index stood at 2.02 ± 0.17 (doa10∆), 2.28 ± 0.15 (san1∆) and 1.96 ± 0.13 (ubr1∆).

With SIRLKVPPTIAQFQYTL [RPL8A], the protein stability index reads like this: (doa10∆) 2.09 ± 0.047; (pdr5∆) 2.36 ± 0.04; (san1∆) 1.93 ± 0.064; (ubr1∆) 2.19 ± 0.035.

In turn, DIDLETYSFIDNDRFNV [YML103C/NUP188] displayed a protein stability index (doa10∆) of 2.47 ± 0.064, a protein stability index (pdr5∆) of 2.54 ± 0.056, a protein stability index (san1∆) of 2.46 ± 0.081 and a protein stability index (ubr1∆) of 2.21 ± 0.042.

Take KVDSPDDPFMTKSGATT [GAL11]: the protein stability index worked out at 2.51 ± 0.077 (doa10∆), 2.63 ± 0.071 (pdr5∆), 2.59 ± 0.055 (san1∆) and 2.79 ± 0.045 (ubr1∆).

With HICGICGLMTVIAKLNH [RPB2], the protein stability index (doa10∆) amounted to 1.65 ± 0.077, the protein stability index (pdr5∆) was determined as 1.33 ± 0.08, the protein stability index (san1∆) came to 1.23 ± 0.14 and the protein stability index (ubr1∆) amounted to 1.43 ± 0.066.

SANVELFKRDCNQMENL [YCS4]: the protein stability index runs as follows: (doa10∆) 3.38 ± 0.1; (pdr5∆) 3.35 ± 0.09; (san1∆) 3.4 ± 0.062; (ubr1∆) 3.35 ± 0.074.

On to LVDENTDYLYRRLHDEN [YCS4], for which the protein stability index worked out at 2.68 ± 0.056 (doa10∆), 2.64 ± 0.048 (pdr5∆), 2.68 ± 0.063 (san1∆) and 2.24 ± 0.034 (ubr1∆).
